± gives the standard error. Fewer inactive variants are shown than the library holds.

The source of these data is the supplement of paper PMC7125110.

The chains are these.
B1: glmS ribozyme (parent)
chain: AUAAAAGCGCCAGAACUACAGAAAUGUAGUUGACGAGGAGGAGGUUUAUCGAAUUUUCGGCGGAUGCCUCCAAA

Common to all, as to details: with glucosamine-6-phosphate
In series [1] the parent is B1. Nature of the series: self-cleavage kobs at 640 uM GlcN6P; higher = faster cleavage; RNA array. In short, it runs like this:
(§1)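 Tracking of barcoded ribozyme variants used a hybridised Cy3 probe at 37 °C, after in situ transcription by E. coli RNA polymerase on sequenced MiSeq chips. The flowed solution held 40 μM to 10 mM glucosamine-6-phosphate in HEPES/KCl/Mg(OAc)2 buffer, and imaging ran over ~14 h. kobs was taken from exponential decay fits of normalised per-tile medians, and kcat and KM from weighted Michaelis–Menten fits.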

Variants of B1 are the subject of series [2]. The series is described as follows: self-cleavage kobs at 2500 uM GlcN6P; higher = faster cleavage; RNA array. In short, it runs like this:
as §1

The variants in series [3] derive from B1. Nature of the series: self-cleavage kobs at 10000 uM GlcN6P; higher = faster cleavage; RNA array. The gist of the method:
as §1

As to G35U U57C, the “self-cleavage kobs at 640 uM GlcN6P” value with glucosamine-6-phosphate [1] was under 1e-05 s⁻¹. In addition, in the series with glucosamine-6-phosphate [2], the “self-cleavage kobs at 2500 uM GlcN6P” value was under 1e-05 s⁻¹.

G29C U56A C58A G63U: the “self-cleavage kobs at 640 uM GlcN6P” value in the series with glucosamine-6-phosphate [1] was under 1e-05 s⁻¹. Also, the “self-cleavage kobs at 2500 uM GlcN6P” value with glucosamine-6-phosphate [2] is under 1e-05 s⁻¹. For A36G G38U C68G, the “self-cleavage kobs at 640 uM GlcN6P” value with glucosamine-6-phosphate [1] turned out to be 9.46e-05 ± 3.2e-05 s⁻¹. Moreover, in the series with glucosamine-6-phosphate [3], the “self-cleavage kobs at 10000 uM GlcN6P” value stood at 3.1e-05 ± 1.5e-05 s⁻¹.

As for A12C G29A C58G U65G C68G, the “self-cleavage kobs at 640 uM GlcN6P” value in the series with glucosamine-6-phosphate [1] was 0.000168 ± 6e-05 s⁻¹. Moreover, in the series with glucosamine-6-phosphate [2], the “self-cleavage kobs at 2500 uM GlcN6P” value worked out at 8.36e-05 ± 2.2e-05 s⁻¹. The corresponding values for U47A G66C C71U are 0.000187 ± 6.3e-05 s⁻¹ and 0.000491 ± 0.00012 s⁻¹. On to C70U A72C, for which the “self-cleavage kobs at 640 uM GlcN6P” value with glucosamine-6-phosphate [1] amounted to 0.000987 ± 0.00042 s⁻¹. Further, the “self-cleavage kobs at 2500 uM GlcN6P” value in the series with glucosamine-6-phosphate [2] turned out to be 0.0035 ± 0.0017 s⁻¹. For the variant U49A G63U, the “self-cleavage kobs at 640 uM GlcN6P” value in the series with glucosamine-6-phosphate [1] was under 1e-05 s⁻¹.

For the variant A6C G59C G60U, the “self-cleavage kobs at 640 uM GlcN6P” value with glucosamine-6-phosphate [1] was under 1e-05 s⁻¹. In addition, the “self-cleavage kobs at 2500 uM GlcN6P” value with glucosamine-6-phosphate [2] is under 1e-05 s⁻¹. With G7A G44U C67G, the “self-cleavage kobs at 640 uM GlcN6P” value in the series with glucosamine-6-phosphate [1] is under 1e-05 s⁻¹. C58A C70A C71A: the “self-cleavage kobs at 640 uM GlcN6P” value in the series with glucosamine-6-phosphate [1] is 8.13e-05 ± 2.5e-05 s⁻¹. In the series with glucosamine-6-phosphate [2], the “self-cleavage kobs at 2500 uM GlcN6P” value came out at 0.000492 ± 0.00012 s⁻¹. As for A33C U45G U55C, the “self-cleavage kobs at 640 uM GlcN6P” value with glucosamine-6-phosphate [1] was under 1e-05 s⁻¹. For G13C A15U C61U, the “self-cleavage kobs at 640 uM GlcN6P” value with glucosamine-6-phosphate [1] was under 1e-05 s⁻¹. For C10A G51A, in the series with glucosamine-6-phosphate [1], the “self-cleavage kobs at 640 uM GlcN6P” value is under 1e-05 s⁻¹. In the series with glucosamine-6-phosphate [3], the “self-cleavage kobs at 10000 uM GlcN6P” value is under 1e-05 s⁻¹. On to C8U U31C U69A, for which the “self-cleavage kobs at 640 uM GlcN6P” value in the series with glucosamine-6-phosphate [1] was determined as 0.00179 ± 0.00081 s⁻¹. On the same count and under the same terms, then C8U G35A U49A, with under 1e-05 s⁻¹; and G59A U69A, with under 1e-05 s⁻¹. G40A A52G C71A: in the series with glucosamine-6-phosphate [1], the “self-cleavage kobs at 640 uM GlcN6P” value turned out to be 0.000146 ± 2.8e-05 s⁻¹. In addition, the “self-cleavage kobs at 2500 uM GlcN6P” value with glucosamine-6-phosphate [2] came out at 0.000203 ± 7.7e-05 s⁻¹. As to G29C G35A G41C G63U C68G, in the series with glucosamine-6-phosphate [1], the “self-cleavage kobs at 640 uM GlcN6P” value was under 1e-05 s⁻¹. On the same count and under the same terms, then A36C A48U U54G G60U G63U A64G, with under 1e-05 s⁻¹. Take A6G U30G G38U U55G: the “self-cleavage kobs at 640 uM GlcN6P” value in the series with glucosamine-6-phosphate [1] was under 1e-05 s⁻¹. In the series with glucosamine-6-phosphate [2], the “self-cleavage kobs at 2500 uM GlcN6P” value is under 1e-05 s⁻¹. Take C11G U31G A39C G41C: the “self-cleavage kobs at 640 uM GlcN6P” value with glucosamine-6-phosphate [1] is under 1e-05 s⁻¹. The “self-cleavage kobs at 2500 uM GlcN6P” value with glucosamine-6-phosphate [2] was under 1e-05 s⁻¹. Turning to G37U U55G U69G, in the series with glucosamine-6-phosphate [1], the “self-cleavage kobs at 640 uM GlcN6P” value was 3.09e-05 ± 1.4e-05 s⁻¹. Turning to U30C U55A G60A C71A, in the series with glucosamine-6-phosphate [1], the “self-cleavage kobs at 640 uM GlcN6P” value was under 1e-05 s⁻¹.

Turning to C16A G41U G59A, the “self-cleavage kobs at 640 uM GlcN6P” value in the series with glucosamine-6-phosphate [1] is under 1e-05 s⁻¹. Also, in the series with glucosamine-6-phosphate [2], the “self-cleavage kobs at 2500 uM GlcN6P” value is under 1e-05 s⁻¹. As for G32A A39G U46C, the “self-cleavage kobs at 640 uM GlcN6P” value in the series with glucosamine-6-phosphate [1] was determined as 0.000174 ± 4.5e-05 s⁻¹. In addition, the “self-cleavage kobs at 2500 uM GlcN6P” value in the series with glucosamine-6-phosphate [2] stood at 0.000355 ± 0.00011 s⁻¹.

Regarding G29C G51U C61G C70A, in the series with glucosamine-6-phosphate [1], the “self-cleavage kobs at 640 uM GlcN6P” value was found to be 9.9e-05 ± 3.7e-05 s⁻¹. The “self-cleavage kobs at 2500 uM GlcN6P” value in the series with glucosamine-6-phosphate [2] was found to be 7.11e-05 ± 2.2e-05 s⁻¹. For C8G C50U A53U U55G, the “self-cleavage kobs at 640 uM GlcN6P” value in the series with glucosamine-6-phosphate [1] was under 1e-05 s⁻¹. On to G32U U46G C50G, for which the “self-cleavage kobs at 640 uM GlcN6P” value with glucosamine-6-phosphate [1] came out at 0.000215 ± 4.7e-05 s⁻¹. In addition, the “self-cleavage kobs at 2500 uM GlcN6P” value in the series with glucosamine-6-phosphate [2] worked out at 9.4e-05 ± 3.4e-05 s⁻¹.

As for G29C U30C G66U, the “self-cleavage kobs at 640 uM GlcN6P” value with glucosamine-6-phosphate [1] was under 1e-05 s⁻¹. On the same count and under the same terms, the value for G7C G9U A39G U45A G59A G60A C67U C68U was under 1e-05 s⁻¹; that for C16A A52G C70U was 0.00109 ± 0.00029 s⁻¹. Consider G41U C50U G60C, for which the “self-cleavage kobs at 640 uM GlcN6P” value with glucosamine-6-phosphate [1] was under 1e-05 s⁻¹. In the case of A12C G35C G44A C50U, the “self-cleavage kobs at 640 uM GlcN6P” value with glucosamine-6-phosphate [1] is under 1e-05 s⁻¹. In the series with glucosamine-6-phosphate [2], the “self-cleavage kobs at 2500 uM GlcN6P” value is under 1e-05 s⁻¹. For G41C U47A U56C, the “self-cleavage kobs at 640 uM GlcN6P” value in the series with glucosamine-6-phosphate [1] is under 1e-05 s⁻¹. On to U54A U55G C67U, for which the “self-cleavage kobs at 640 uM GlcN6P” value with glucosamine-6-phosphate [1] was 0.000411 ± 0.00015 s⁻¹. The “self-cleavage kobs at 2500 uM GlcN6P” value with glucosamine-6-phosphate [2] worked out at 0.000903 ± 0.00028 s⁻¹. For the variant A36U U65C C70G, in the series with glucosamine-6-phosphate [1], the “self-cleavage kobs at 640 uM GlcN6P” value is 0.000173 ± 7.9e-05 s⁻¹.
